From patent US20210230279A1 (University of California, published 2021)
Ends that are not written are not given here.

What was measured:
[1] = biological target: T1, recombinant human integrin αvβ8 (human, UniProt P06756 31-992; P26012 43-684); assay: ELISA, Mab coated at 5 ug/ml, receptor 0.5 µg/ml in Mg buffer (1 mM Ca++ and 1 mM Mg++), detected with biotinylated anti-αv 8B8
T1 construct: also called Human Integrin alpha V beta 8; purified recombinant αvβ8

[2] = biological target: T2, recombinant human integrin αvβ6 (human, UniProt P18564 22-707); assay: as above
T2 construct: also called αvβ6 (R&D systems); αvβ6 receptor

[3] = biological target: T2, recombinant human integrin αvβ6; assay: cell-based or functional assay
[4] = biological target: T2, recombinant human integrin αvβ6; assay: blocking of adhesion (A590) of Cho cells expressing GARP/LTGFB1 to immobilized αvβ6; antibody concentration varied; unit taken from the axis log[Agonist], (ug/ml)
[5] = biological target: T3, recombinant human integrin αvβ3 (human, UniProt P05106 27-718); assay: ELISA on coated recombinant human integrin; 0 = no apparent binding
T3 construct: Bought; also called αvβ3 (R&D systems)
T3 sequence (chain, as listed by the source limits assumed, chain 1 of 2): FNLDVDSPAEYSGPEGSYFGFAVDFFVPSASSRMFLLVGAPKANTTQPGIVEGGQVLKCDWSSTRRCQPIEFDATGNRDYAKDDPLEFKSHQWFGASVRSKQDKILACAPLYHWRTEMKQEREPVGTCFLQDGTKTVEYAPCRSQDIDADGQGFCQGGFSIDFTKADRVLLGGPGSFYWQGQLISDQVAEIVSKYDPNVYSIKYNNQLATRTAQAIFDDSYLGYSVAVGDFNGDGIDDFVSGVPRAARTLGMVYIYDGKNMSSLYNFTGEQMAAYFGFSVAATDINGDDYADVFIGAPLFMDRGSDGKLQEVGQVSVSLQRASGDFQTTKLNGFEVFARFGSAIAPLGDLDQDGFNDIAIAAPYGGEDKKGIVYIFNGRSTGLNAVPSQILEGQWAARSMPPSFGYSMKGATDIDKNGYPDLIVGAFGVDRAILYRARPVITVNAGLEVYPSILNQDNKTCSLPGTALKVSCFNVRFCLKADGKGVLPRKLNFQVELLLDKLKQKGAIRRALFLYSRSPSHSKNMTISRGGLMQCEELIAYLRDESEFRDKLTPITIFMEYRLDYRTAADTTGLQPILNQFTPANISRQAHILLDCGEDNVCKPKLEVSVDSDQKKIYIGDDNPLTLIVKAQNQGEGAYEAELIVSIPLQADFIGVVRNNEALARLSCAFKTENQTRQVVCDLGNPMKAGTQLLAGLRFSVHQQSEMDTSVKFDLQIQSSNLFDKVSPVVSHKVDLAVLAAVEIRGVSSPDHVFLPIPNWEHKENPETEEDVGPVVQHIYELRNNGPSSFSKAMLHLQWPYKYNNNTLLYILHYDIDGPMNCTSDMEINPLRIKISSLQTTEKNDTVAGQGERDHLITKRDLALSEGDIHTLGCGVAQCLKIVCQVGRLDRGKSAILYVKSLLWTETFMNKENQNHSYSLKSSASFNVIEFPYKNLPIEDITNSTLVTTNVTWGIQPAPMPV
T3 sequence (P05106 27-718 limits assumed, chain 2 of 2): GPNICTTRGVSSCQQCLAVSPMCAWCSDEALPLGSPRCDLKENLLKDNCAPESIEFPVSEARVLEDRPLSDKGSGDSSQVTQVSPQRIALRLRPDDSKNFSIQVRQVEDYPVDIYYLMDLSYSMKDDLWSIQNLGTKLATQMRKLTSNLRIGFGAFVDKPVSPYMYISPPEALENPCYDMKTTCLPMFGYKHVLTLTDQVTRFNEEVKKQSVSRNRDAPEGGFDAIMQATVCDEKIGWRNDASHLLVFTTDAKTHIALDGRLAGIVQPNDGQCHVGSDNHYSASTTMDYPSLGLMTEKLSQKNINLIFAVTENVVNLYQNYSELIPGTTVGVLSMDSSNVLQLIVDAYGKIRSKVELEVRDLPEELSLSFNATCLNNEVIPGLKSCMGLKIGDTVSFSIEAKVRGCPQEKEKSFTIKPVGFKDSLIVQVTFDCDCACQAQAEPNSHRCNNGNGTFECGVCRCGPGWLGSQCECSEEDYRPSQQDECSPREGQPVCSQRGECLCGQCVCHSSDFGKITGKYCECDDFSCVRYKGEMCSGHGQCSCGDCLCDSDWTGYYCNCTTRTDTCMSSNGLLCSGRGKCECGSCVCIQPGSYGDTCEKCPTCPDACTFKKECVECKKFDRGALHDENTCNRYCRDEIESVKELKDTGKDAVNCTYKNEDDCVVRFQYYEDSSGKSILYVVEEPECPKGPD

[6] = biological target: T4, recombinant human integrin αvβ5 (human, UniProt P18084 24-719); assay: as above
T4 construct: Bought; also called αvβ5 (R&D systems)
T4 sequence (chain, as listed by the source limits assumed, chain 1 of 2): as the sequence (chain, as listed by the source limits assumed, chain 1 of 2) above
T4 sequence (P18084 24-719 limits assumed, chain 2 of 2): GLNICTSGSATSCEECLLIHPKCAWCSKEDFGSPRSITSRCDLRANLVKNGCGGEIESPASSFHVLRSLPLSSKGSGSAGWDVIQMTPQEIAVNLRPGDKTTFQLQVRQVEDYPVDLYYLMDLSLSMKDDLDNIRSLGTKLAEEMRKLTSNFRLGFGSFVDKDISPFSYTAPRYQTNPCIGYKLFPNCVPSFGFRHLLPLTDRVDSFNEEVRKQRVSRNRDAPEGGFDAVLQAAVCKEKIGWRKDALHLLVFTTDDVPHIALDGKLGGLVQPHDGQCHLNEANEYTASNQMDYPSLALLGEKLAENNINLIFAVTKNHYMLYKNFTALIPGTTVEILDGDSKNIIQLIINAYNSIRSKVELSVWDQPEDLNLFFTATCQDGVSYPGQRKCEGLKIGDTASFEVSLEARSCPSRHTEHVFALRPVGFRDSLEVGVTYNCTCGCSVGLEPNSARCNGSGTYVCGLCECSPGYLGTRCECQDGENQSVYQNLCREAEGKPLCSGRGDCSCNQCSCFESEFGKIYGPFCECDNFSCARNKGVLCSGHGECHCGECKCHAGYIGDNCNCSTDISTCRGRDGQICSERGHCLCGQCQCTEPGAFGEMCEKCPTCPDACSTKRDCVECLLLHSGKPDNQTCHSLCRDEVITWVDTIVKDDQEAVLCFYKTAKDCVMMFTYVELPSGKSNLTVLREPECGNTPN

[7] = biological target: T5, recombinant human integrin αvβ1 (human, UniProt P05556 21-728); assay: as above
T5 construct: Bought; also called αvβ1 (R&D systems)

[8] = biological target: T1, recombinant human integrin αvβ8; assay: blocking of adhesion (A590) of Cho cells expressing GARP/LTGFB1 to immobilized αvβ8; antibody concentration varied; unit taken from the axis log[Agonist], (ug/ml)
[9] = biological target: T1, recombinant human integrin αvβ8; assay: ELISA: integrin coated on plate, supernatant of transfected 293 cells at 1/10 dilution, anti-mouse IgG-HRP; score normalized to expression;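 further: scale runs from 0 (no apparent binding) to 4 (robust binding), with scores adjusted for clone protein expression as determined by a murine IgG ELISA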
[10] = biological target: T2, recombinant human integrin αvβ6; assay: competition of RGD3 with 3G9 for binding to αvβ6 (sheet title: modest cross-competition); y axis 'Relative Inhibition of avb6 binding to TGFb3 peptide'; signal falls from about 1.0 only to about 0.55 at log 4
[11] = biological target: T1, recombinant human integrin αvβ8; assay: cell-based or functional assay
[12] = biological target: T6, truncated secreted form of αvβ8 fused in frame to alkaline phosphatase; assay: ELISA: inhibition of binding of secreted αvβ8-alkaline phosphatase to coated TGF-β3 RGD peptide (1 µg/ml), OD405; fitted value in the table under the graph; unit from the axis and paragraph 229
T6 construct: Printed: truncated secreted form; also called alkaline phosphatase (AP) αvβ8 fusion protein; secreted αvβ8

[13] = biological target: T1, recombinant human integrin αvβ8; assay: Kinetic Exclusion Assay (KinExA), C6D4 as murine IgG2a
[14] = biological target: T2, recombinant human integrin αvβ6; assay: ELISA, Mab coated at 5 ug/ml, αvβ6 receptor 0.5 µg/ml, detected with biotinylated anti-αv 8B8; percent of binding to anti-αv clone 11D12V2
[15] = biological target: T2, recombinant human integrin αvβ6; assay: ELISA on coated recombinant human integrin; 0 = no apparent binding
[16] = biological target: T1, recombinant human integrin αvβ8; assay: scFv yeast display selection from random mutation libraries of clones 29 and 44
[17] = biological target: recombinant αvβ8 ectodomain (Homo sapiens (Human), UniProt P06756 31-992; P26012 43-684); assay: ELISA, Mab coated at the given concentration, αvβ8 ectodomain 0.5 µg/ml, detected with biotinylated anti-αv 8B8 and SA-HRP; specific binding minus SV5 control
[18] = biological target: T3, recombinant human integrin αvβ3; assay: ELISA, integrin coated, rabbit IgG detected with anti-rabbit HRP; relative to anti-αv (8B8) control wells
[19] = biological target: T4, recombinant human integrin αvβ5; assay: as above
[20] = biological target: T2, recombinant human integrin αvβ6; assay: as above
[21] = biological target: T5, recombinant human integrin αvβ1; assay: as above
[22] = biological target: T7, human integrin αvβ8 on CHO cells (human, UniProt P06756 31-1048; P26012 43-769); assay: cell adhesion to coated peptide, crystal violet, signal above mock transfected cells (FIG. 25)
T7 construct: also called CHO cells expressing αvβ8; CHO lec cells stably transfected with αvβ8

T1 sequence (P06756 31-992 limits assumed, chain 1 of 2): as the sequence (chain, as listed by the source limits assumed, chain 1 of 2) above
T1 sequence (P26012 43-684 limits assumed, chain 2 of 2): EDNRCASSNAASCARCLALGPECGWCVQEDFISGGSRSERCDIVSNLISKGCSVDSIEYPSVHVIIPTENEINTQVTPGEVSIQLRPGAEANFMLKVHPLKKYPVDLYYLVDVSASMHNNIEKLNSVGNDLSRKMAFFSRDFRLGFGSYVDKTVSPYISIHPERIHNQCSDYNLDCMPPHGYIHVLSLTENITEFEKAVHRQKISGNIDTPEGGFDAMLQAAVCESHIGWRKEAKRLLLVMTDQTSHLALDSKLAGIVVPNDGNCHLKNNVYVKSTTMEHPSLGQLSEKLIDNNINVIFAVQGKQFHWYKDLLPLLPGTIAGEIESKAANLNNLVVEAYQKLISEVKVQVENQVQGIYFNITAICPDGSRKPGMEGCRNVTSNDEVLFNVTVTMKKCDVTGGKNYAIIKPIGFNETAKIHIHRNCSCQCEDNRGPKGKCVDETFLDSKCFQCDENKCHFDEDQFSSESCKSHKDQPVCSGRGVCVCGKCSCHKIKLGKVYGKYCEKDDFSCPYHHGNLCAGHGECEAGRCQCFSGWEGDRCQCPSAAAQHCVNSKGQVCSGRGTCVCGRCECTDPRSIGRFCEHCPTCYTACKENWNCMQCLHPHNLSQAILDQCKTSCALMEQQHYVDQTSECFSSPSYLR

B1: C6D4-RGD3 (antibody, V domains shown)
VH: QIQLLQSGPELKKPGETVKISCKASGYTFTDYSMHWVKQAPGKGLKWVARINTETGEPTFADDFRGRFAVSLETSASTAYLQINNLKNEDTATYFCAIFYYGRDSWGQGTTLTVSS
VL: DIVMTQSPSSLAVSAGEKVTMSCKSSQSLLGRGDLGRLKKNALAWYQQKPGQSPRLLIYWASTRESGVPDRFTGSGSGTDFTLTISSVQAEDLAVYYCKQSYNLLSFGAGTKLELKR
notes: also called CD64-RGD3; C6 / RGD3
In the case of B1, the “Binding in Mg buffer relative to clone 68 (% compared with binding to anti-av clone 11D12V2)” value [1] is reported as 98%, the “Binding in Mg buffer relative to clone 68 (% compared with binding to anti-av clone 11D12V2)” value [2] is reported as 120% and the “EC50 of inhibition of TGF-β activation (TMLC luciferase reporter) of GARP/LTGFB1 Cho cells on immobilized αvβ6; unit from the axis” value [3] is reported as 0.412 µg/mL. For the same binder, the EC50 [4] was 0.479 µg/mL, the binding result [5] was “no binding (tested: supernatant at 1/10 dilution)” and the binding result [6] was “no binding (tested: supernatant at 1/10 dilution)”. For the same binder, the binding result [7] was “no binding (tested: supernatant at 1/10 dilution)”, the EC50 [8] was 1.19 µg/mL and the “binding intensity score (0-4)” value [9] was 4 score 0-4. For the same binder, the LogEC50 [10] was 3.78 Log10 (ng/ml) and the “EC50 of inhibition of TGF-β activation (TMLC luciferase reporter) of GARP/LTGFB1 Cho cells on immobilized αvβ8; unit from the axis” value [11] was 0.854 µg/mL.

B2: C6D4 (composite antibody of C6 VH and D4 VK; murine IgG2a) (antibody, V domains shown)
VH: QIQLLQSGPELKKPGETVKISCKASGYTFTDYSMHWVKQAPGKGLKWVARINTETGEPTFADDFRGRFAVSLETSASTAYLQINNLKNEDTATYFCAIFYYGRDSWGQGTTLTVSS
VL: DIVMTQSPSSLAVSAGEKVTMSCKSSQSLLNSRTRKNYLAWYQQKPGQSPRLLIYWASTRESGVPDRFTGSGSGTDFTLTISSVQAEDLAVYYCKQSYNLLSFGAGTKLELKR
notes: also called C6D4 murine IgG2a; Mab C6D4
In the case of B2, the IC50 [12] is reported as 0.494 µg/mL, the “Binding in Mg buffer relative to clone 68 (% compared with binding to anti-av clone 11D12V2)” value [1] is reported as 103% and the Kd [13] is reported as 0.832 nM. B2: no binding (tested: supernatant at 1/10 dilution) [5]; no binding (tested: supernatant at 1/10 dilution) [6]; no binding (tested: supernatant at 1/10 dilution) [7]. The binding result [14] was “no binding (tested: 5 ug/ml (coated Mab))”, the EC50 [8] was 1.2 µg/mL and the “binding intensity score (0-4)” value [9] was 4 score 0-4. The “EC50 of inhibition of TGF-β activation (TMLC luciferase reporter) of GARP/LTGFB1 Cho cells on immobilized αvβ8; unit from the axis” value [11] was 1.04 µg/mL.

B3: C6 VH / RGD1 Vk murine IgG (antibody, V domains shown)
VH: QIQLLQSGPELKKPGETVKISCKASGYTFTDYSMHWVKQAPGKGLKWVARINTETGEPTFADDFRGRFAVSLETSASTAYLQINNLKNEDTATYFCAIFYYGRDSWGQGTTLTVSS
VL: DIVMTQSPSSLAVSAGEKVTMSCKSSQSLLGRGDLGNALAWYQQKPGQSPRLLIYWASTRESGVPDRFTGSGSGTDFTLTISSVQAEDLAVYYCKQSYNLLSFGAGTKLELKR
notes: Murine IgG, supernatant of 293 cells; CDRL1 swap into the C6D4 murine IgG vector, VH not altered; also called C6D4-RGD1; C6RGD1
B3: no binding (tested: supernatant at 1/10 dilution) [5]; no binding (tested: supernatant at 1/10 dilution) [6]; no binding (tested: supernatant at 1/10 dilution) [15]. For the same binder, the binding result [7] was “no binding (tested: supernatant at 1/10 dilution)” and the “binding intensity score (0-4)” value [9] was 1 score 0-4.

B4: clone C6 (scFv, yeast display) (scFv, V domains shown)
VH: QIQLLQSGPELKKPGETVKISCKASGYTFTDYSMHWVKQAPGKGLKWVARINTETGEPTFADDFRGRFAVSLETSASTAYLQINNLKNEDTATYFCAIFYYGRDSWGQGTALTVSS
VL: DIVMSQSPSSLAVSAGEKVTMSCKSSQSLLNSRTRKNYLAWYQQKPGQSPRLLIYWASTRESGVPDRFTGSGSGTDFTLTISSVQAEDLAVYYCKQSYNLLTFGAGTKLELKA
notes: scFv on yeast; also called A5=C6
B4: binds [16].

B5: Humanized C6D4-RGD3 (HuC6D4-RGD3) (antibody, V domains shown)
VH: QIQLVQSGAEVKKPGASVKISCKASGYTFTDYSMHWVRQAPGQGLEWVARINTETGEPTFADDFRGRFTVTLDTSTSTAYLEIRSLRSDDTAVYFCAIFYYGRDTWGQGTTLTVSS
VL: EIVMTQSPATLSVSPGERVTMSCKSSQSLLGRGDLGRLKKNALAWYQQKPGQAPRLLIYWASTRESGVPARFSGSGSGTEFTLTISSVQSEDFAVYYCKQSYNLLSFGQGTVLEIKR
notes: Frameworks and CH1 are human; hinge and CH2-3 are mouse; also called humanized RGD3
B5: binds [17].

B6: C6D4 as rabbit IgG (C6VH expressed with D4 Vk) (antibody, V domains shown)
VH: QIQLLQSGPELKKPGETVKISCKASGYTFTDYSMHWVKQAPGKGLKWVARINTETGEPTFADDFRGRFAVSLETSASTAYLQINNLKNEDTATYFCAIFYYGRDSWGQGTTLTVSS
VL: DIVMTQSPSSLAVSAGEKVTMSCKSSQSLLNSRTRKNYLAWYQQKPGQSPRLLIYWASTRESGVPDRFTGSGSGTDFTLTISSVQAEDLAVYYCKQSYNLLSFGAGTKLELKR
notes: also called wildtype C6D4
B6: no binding [18]; no binding [19]; no binding [20].

B7: C6D4-RGD3 as rabbit IgG (C6VH expressed with the RGD3 mutant Vk) (antibody, V domains shown)
VH: QIQLLQSGPELKKPGETVKISCKASGYTFTDYSMHWVKQAPGKGLKWVARINTETGEPTFADDFRGRFAVSLETSASTAYLQINNLKNEDTATYFCAIFYYGRDSWGQGTTLTVSS
VL: DIVMTQSPSSLAVSAGEKVTMSCKSSQSLLGRGDLGRLKKNALAWYQQKPGQSPRLLIYWASTRESGVPDRFTGSGSGTDFTLTISSVQAEDLAVYYCKQSYNLLSFGAGTKLELKR
notes: also called C6D4-RGD3 mutant
B7: no binding [18]; no binding [19]; no binding [21].

B8: C6 VH / RGD2 Vk murine IgG (antibody, V domains shown)
VH: QIQLLQSGPELKKPGETVKISCKASGYTFTDYSMHWVKQAPGKGLKWVARINTETGEPTFADDFRGRFAVSLETSASTAYLQINNLKNEDTATYFCAIFYYGRDSWGQGTTLTVSS
VL: DIVMTQSPSSLAVSAGEKVTMSCKSSQSLLNSGRGDLGNALAWYQQKPGQSPRLLIYWASTRESGVPDRFTGSGSGTDFTLTISSVQAEDLAVYYCKQSYNLLSFGAGTKLELKR
notes: Murine IgG, supernatant of 293 cells; CDRL1 of the C6D4 murine IgG vector replaced by the printed loop, VH not altered; also called C6D4-RGD2; C6RGD2
B8: no binding (tested: supernatant at 1/10 dilution) [5]; no binding (tested: supernatant at 1/10 dilution) [6]; no binding (tested: supernatant at 1/10 dilution) [15]. The binding result [7] was “no binding (tested: supernatant at 1/10 dilution)” and the “binding intensity score (0-4)” value [9] was 2 score 0-4.

B9: TGF-β3 RGD multiple antigen presenting peptide DDHGRGDLGRLK (peptide)
peptide: DDHGRGDLGRLK
modifications: also: multiple antigen presenting peptide on 8-lysine core (branched)
notes: Branched peptide on a lysine core; also called L-TGF-b3 peptide; TGFb3 peptide
B9: binds [22].
